These results are taken from the Human Domainome abundance scans (Beltran et al. 2025).

± gives the uncertainty stated by the source.

A short description of the data set: abundance fitness (aPCA) (normalised: wild type 0, dead -1); higher = more abundant; growth selection in yeast, the domain comes from the species named. Particulars: Homo sapiens.
As for “DnaJ homolog subfamily B member 1 I48H, P25685”, the abundance fitness is -0.561 ± 0.12.

“DnaJ homolog subfamily B member 1 I48K, P25685” came in with an abundance fitness of -0.329 ± 0.2.

The substance “DnaJ homolog subfamily B member 1 I48L, P25685” gave an abundance fitness of -0.089 ± 0.072.

On to “DnaJ homolog subfamily B member 1 I48M, P25685”, for which the abundance fitness was -0.111 ± 0.099.

As for “DnaJ homolog subfamily B member 1 I48P, P25685”, the abundance fitness is -0.561 ± 0.1.

Regarding “DnaJ homolog subfamily B member 1 I48Q, P25685”, the abundance fitness was -0.422 ± 0.12.

As for “DnaJ homolog subfamily B member 1 I48R, P25685”, the abundance fitness was -0.74 ± 0.075.

For “DnaJ homolog subfamily B member 1 I48S, P25685”, the abundance fitness is -0.387 ± 0.074.

As to “DnaJ homolog subfamily B member 1 I48V, P25685”, the abundance fitness was -0.267 ± 0.089.

Substance “DnaJ homolog subfamily B member 1 I48W, P25685” showed an abundance fitness of -1 ± 0.11.

“DnaJ homolog subfamily B member 1 I48Y, P25685” showed an abundance fitness of -0.386 ± 0.2.

“DnaJ homolog subfamily B member 1 I63A, P25685” returned an abundance fitness of 0.237 ± 0.097.

“DnaJ homolog subfamily B member 1 I63C, P25685” had an abundance fitness of -0.083 ± 0.1.

In the case of “DnaJ homolog subfamily B member 1 I63D, P25685”, the abundance fitness is -0.014 ± 0.21.

Substance “DnaJ homolog subfamily B member 1 I63E, P25685” had an abundance fitness of 0.092 ± 0.1.

The substance “DnaJ homolog subfamily B member 1 I63F, P25685” showed an abundance fitness of -0.212 ± 0.26.

The substance “DnaJ homolog subfamily B member 1 I63G, P25685” yielded an abundance fitness of -0.003 ± 0.089.

The substance “DnaJ homolog subfamily B member 1 I63H, P25685” displayed an abundance fitness of -0.311 ± 0.33.

Substance “DnaJ homolog subfamily B member 1 I63K, P25685” showed an abundance fitness of -0.019 ± 0.13.

“DnaJ homolog subfamily B member 1 I63L, P25685” displayed an abundance fitness of -0.097 ± 0.082.

“DnaJ homolog subfamily B member 1 I63M, P25685” had an abundance fitness of -0.087 ± 0.085.

The substance “DnaJ homolog subfamily B member 1 I63N, P25685” had an abundance fitness of -0.012 ± 0.11.

In turn, “DnaJ homolog subfamily B member 1 I63P, P25685” displayed an abundance fitness of 0.08 ± 0.11.

For the substance “DnaJ homolog subfamily B member 1 I63Q, P25685”, the abundance fitness was determined as 0.098 ± 0.074.

“DnaJ homolog subfamily B member 1 I63R, P25685” yielded an abundance fitness of 0.044 ± 0.074.

As to “DnaJ homolog subfamily B member 1 I63S, P25685”, the abundance fitness was found to be 0.108 ± 0.068.

“DnaJ homolog subfamily B member 1 I63T, P25685” displayed an abundance fitness of 0.588 ± 0.081.

Substance “DnaJ homolog subfamily B member 1 I63V, P25685” showed an abundance fitness of 0.016 ± 0.065.

In turn, “DnaJ homolog subfamily B member 1 I63W, P25685” gave an abundance fitness of -0.277 ± 0.12.

In turn, “DnaJ homolog subfamily B member 1 I63Y, P25685” had an abundance fitness of -0.236 ± 0.12.

As for “DnaJ homolog subfamily B member 1 K21A, P25685”, the abundance fitness is -0.071 ± 0.072.

“DnaJ homolog subfamily B member 1 K21C, P25685” returned an abundance fitness of -0.089 ± 0.071.

Turning to “DnaJ homolog subfamily B member 1 K21D, P25685”, the abundance fitness is -0.25 ± 0.12.

In the case of “DnaJ homolog subfamily B member 1 K21E, P25685”, the abundance fitness was -0.182 ± 0.1.

“DnaJ homolog subfamily B member 1 K21H, P25685” gave an abundance fitness of 0.006 ± 0.085.

“DnaJ homolog subfamily B member 1 K21L, P25685” yielded an abundance fitness of -0.029 ± 0.051.

Turning to “DnaJ homolog subfamily B member 1 K21P, P25685”, the abundance fitness was -0.822 ± 0.08.

With “DnaJ homolog subfamily B member 1 K21Q, P25685”, the abundance fitness turned out to be 0.122 ± 0.051.

“DnaJ homolog subfamily B member 1 K21R, P25685” had an abundance fitness of -0.126 ± 0.059.

For the substance “DnaJ homolog subfamily B member 1 K21S, P25685”, the abundance fitness is -0.097 ± 0.051.

“DnaJ homolog subfamily B member 1 K21T, P25685” came in with an abundance fitness of -0.053 ± 0.064.

For “DnaJ homolog subfamily B member 1 K21V, P25685”, the abundance fitness is -0.078 ± 0.061.

Take “DnaJ homolog subfamily B member 1 K21W, P25685”: the abundance fitness is -0.152 ± 0.072.

Regarding “DnaJ homolog subfamily B member 1 K21Y, P25685”, the abundance fitness is -0.121 ± 0.088.

“DnaJ homolog subfamily B member 1 K35A, P25685” came in with an abundance fitness of -0.359 ± 0.082.

In turn, “DnaJ homolog subfamily B member 1 K35C, P25685” registered an abundance fitness of -0.46 ± 0.11.

In turn, “DnaJ homolog subfamily B member 1 K35D, P25685” gave an abundance fitness of -0.193 ± 0.13.

Substance “DnaJ homolog subfamily B member 1 K35E, P25685” registered an abundance fitness of -0.285 ± 0.088.

For “DnaJ homolog subfamily B member 1 K35F, P25685”, the abundance fitness is -0.614 ± 0.11.

Turning to “DnaJ homolog subfamily B member 1 K35G, P25685”, the abundance fitness is -0.25 ± 0.083.

“DnaJ homolog subfamily B member 1 K35H, P25685” came in with an abundance fitness of -0.724 ± 0.12.

Substance “DnaJ homolog subfamily B member 1 K35I, P25685” registered an abundance fitness of -0.504 ± 0.086.

“DnaJ homolog subfamily B member 1 K35L, P25685” had an abundance fitness of -0.55 ± 0.071.

With “DnaJ homolog subfamily B member 1 K35M, P25685”, the abundance fitness was -0.596 ± 0.1.

Take “DnaJ homolog subfamily B member 1 K35N, P25685”: the abundance fitness is -0.742 ± 0.13.

For “DnaJ homolog subfamily B member 1 K35P, P25685”, the abundance fitness is -0.365 ± 0.1.

Substance “DnaJ homolog subfamily B member 1 K35Q, P25685” showed an abundance fitness of -0.213 ± 0.092.

As to “DnaJ homolog subfamily B member 1 K35R, P25685”, the abundance fitness came out at 0.034 ± 0.092.

Substance “DnaJ homolog subfamily B member 1 K35S, P25685” had an abundance fitness of -0.438 ± 0.064.

Turning to “DnaJ homolog subfamily B member 1 K35T, P25685”, the abundance fitness is -0.414 ± 0.095.

In the case of “DnaJ homolog subfamily B member 1 K35V, P25685”, the abundance fitness was -0.396 ± 0.1.

“DnaJ homolog subfamily B member 1 K35W, P25685” had an abundance fitness of -0.963 ± 0.095.

Consider “DnaJ homolog subfamily B member 1 K35Y, P25685”, for which the abundance fitness was -0.632 ± 0.13.

In the case of “DnaJ homolog subfamily B member 1 K37C, P25685”, the abundance fitness was -0.267 ± 0.14.

With “DnaJ homolog subfamily B member 1 K37D, P25685”, the abundance fitness is -0.27 ± 0.2.

Turning to “DnaJ homolog subfamily B member 1 K37E, P25685”, the abundance fitness is 0.117 ± 0.22.

Substance “DnaJ homolog subfamily B member 1 K37F, P25685” came in with an abundance fitness of -0.645 ± 0.17.

“DnaJ homolog subfamily B member 1 K37G, P25685” registered an abundance fitness of -0.319 ± 0.11.

Turning to “DnaJ homolog subfamily B member 1 K37H, P25685”, the abundance fitness turned out to be 0.05 ± 0.13.

Substance “DnaJ homolog subfamily B member 1 K37I, P25685” showed an abundance fitness of -0.304 ± 0.12.

With “DnaJ homolog subfamily B member 1 K37L, P25685”, the abundance fitness is -0.286 ± 0.061.

In turn, “DnaJ homolog subfamily B member 1 K37M, P25685” displayed an abundance fitness of -0.41 ± 0.18.

Regarding “DnaJ homolog subfamily B member 1 K37P, P25685”, the abundance fitness is -0.306 ± 0.14.

As for “DnaJ homolog subfamily B member 1 K37Q, P25685”, the abundance fitness is -0.2 ± 0.089.

For the substance “DnaJ homolog subfamily B member 1 K37R, P25685”, the abundance fitness was -0.115 ± 0.066.

“DnaJ homolog subfamily B member 1 K37S, P25685” came in with an abundance fitness of -0.225 ± 0.065.

The substance “DnaJ homolog subfamily B member 1 K37T, P25685” came in with an abundance fitness of -0.228 ± 0.11.

In the case of “DnaJ homolog subfamily B member 1 K37V, P25685”, the abundance fitness is -0.356 ± 0.083.

In the case of “DnaJ homolog subfamily B member 1 K37Y, P25685”, the abundance fitness is -0.277 ± 0.15.

As to “DnaJ homolog subfamily B member 1 K44A, P25685”, the abundance fitness is -0.138 ± 0.092.

In the case of “DnaJ homolog subfamily B member 1 K44C, P25685”, the abundance fitness is -0.208 ± 0.14.

As for “DnaJ homolog subfamily B member 1 K44D, P25685”, the abundance fitness is -0.356 ± 0.15.

On to “DnaJ homolog subfamily B member 1 K44E, P25685”, for which the abundance fitness is -0.322 ± 0.077.

As to “DnaJ homolog subfamily B member 1 K44F, P25685”, the abundance fitness is -0.298 ± 0.12.

“DnaJ homolog subfamily B member 1 K44G, P25685” registered an abundance fitness of -0.39 ± 0.062.

“DnaJ homolog subfamily B member 1 K44H, P25685” yielded an abundance fitness of -0.182 ± 0.16.

In the case of “DnaJ homolog subfamily B member 1 K44I, P25685”, the abundance fitness is -0.279 ± 0.2.

The substance “DnaJ homolog subfamily B member 1 K44L, P25685” displayed an abundance fitness of -0.144 ± 0.051.

“DnaJ homolog subfamily B member 1 K44M, P25685” gave an abundance fitness of -0.134 ± 0.068.

On to “DnaJ homolog subfamily B member 1 K44N, P25685”, for which the abundance fitness is -0.204 ± 0.13.

“DnaJ homolog subfamily B member 1 K44P, P25685”: the abundance fitness was -0.717 ± 0.096.
